Assay [1] deals with T1, gastrin-releasing peptide receptor (human (human prostate PC-3 cells), UniProt P30550 1-384).
T1 construct: whole, on cells; Endogenous receptor on PC-3 cells; also called GRPR; GRPr
Description: competitive displacement of 125I-(Tyr4)-BBN on GRPR-positive PC-3 cells. The method, then:
(§1) (NAAG) as the radioligands. For the GRPR-positive assay, 3×10⁴ PC-3 cells (in D-MEM/F-12 K media containing 0.01 M MEM and 2% BSA, pH=5.5) were incubated with 20,000 counts per minute of [¹²⁵I-(Tyr4)-BBN] and increasing concentrations (1×10⁻¹³-1×10⁻⁵ M) of the metallated targeting vector (1 h, 37° C., 5% CO₂-enriched atmosphere). After incubation, the reaction medium was aspirated and the cells were rinsed three times with cold media. Cell-associated radioactivity was determined using a Packard Riastar gamma counter. The percent of bound radioligand was plotted against the increasing concentrations of the metallated conjugate to determine the IC₅₀ value. IC₅₀ values were determined by curve fitting using Prism Software (version 6.0). For the PSMA-positive assay, the binding affinity was measured using the N-acetylated-α-linked acidic dipeptidase (NAALADase) assay. […] (increasing concentrations 1×10⁻¹³-1×10⁻⁵ M) in 50 μL of Tris-HCl buffer (50 mM, pH=7.4) were incubated with LNCaP tissue culture homogenized cell membranes for a period of 45 min. Then, [N-acetyl aspartyl ³H-glutamate] was added to the reaction mixture and the solution was allowed to incubate for an additional 15 min at 37° C. The enzymatic reaction was stopped by addition of 50 μL of cold sodium phosphate buffer (0.1 M, pH=7.4). [N-acetyl aspartyl ³H-glutamate] and [³H-glutamate] were resolved by cation exchange chromatography using AG 50 W-X8 columns (200-400 mesh). Columns were pre-equilibrated with 0.2 M HCl prior to loading of the reaction mixture. Fractions containing [³H-glutamate] were eluted using 6 mL of 2 M HCl. Scintillation cocktail was added to each fraction and the amount of radioactivity in each was determined by liquid scintillation counting. The percent of bound radioligand was plotted against the increasing concentrations of the conjugate to determine the IC₅₀ value. IC₅₀ values were determined by curve fitting using Prism Software (version 6.0).

Assay [2] concerns the target T1, gastrin-releasing peptide receptor. Kind of assay: competitive displacement of 125I-[Tyr4]BBN on human prostate PC-3 cells (FIG. 2). The method, then: as §1, with “6.0).” for “6.0). For the PSMA-positive assay, the binding affinity was measured using the N-acetylated-α-linked acidic dipeptidase (NAALADase) assay.”, “[N-acetyl aspartyl ³H-glutamate] and [³H-glutamate] were resolved by cation exchange chromatography using AG 50 W-X8 columns (200-400 mesh). Columns were pre-equilibrated with 0.2 M HCl prior to loading of the reaction mixture. Fractions containing [³H-glutamate] were eluted using 6 mL of 2 M HCl.” left out, “The percent of bound radioligand was plotted against the increasing concentrations of the conjugate to determine the IC₅₀ value.” left out

Assay [3] addresses prostate specific membrane antigen (human (human prostate LNCaP cells), UniProt Q04609 1-750). Kind of assay: cell-based or functional assay.

Square brackets hold non-standard residues; d marks the D form. * marks the point of attachment. DUPA = PSMA-binding small-molecule urea, O=C(O)CC[C@H](NC(=O)N[C@@H](CCC(=O)*)C(=O)O)C(=O)O; DOTA = O=C(O)CN1CCN(CC(=O)O)CCN(CC(=O)*)CCN(CC(=O)O)CC1; Sta = CC(C)C[C@H](N)[C@@H](O)CC(=O)O; 4Abz = Nc1ccc(C(=O)O)cc1; Ahx = NCCCCCC(=O)O; Ava = NCCCCC(=O)O

Chain of prostate specific membrane antigen (Q04609 whole entry): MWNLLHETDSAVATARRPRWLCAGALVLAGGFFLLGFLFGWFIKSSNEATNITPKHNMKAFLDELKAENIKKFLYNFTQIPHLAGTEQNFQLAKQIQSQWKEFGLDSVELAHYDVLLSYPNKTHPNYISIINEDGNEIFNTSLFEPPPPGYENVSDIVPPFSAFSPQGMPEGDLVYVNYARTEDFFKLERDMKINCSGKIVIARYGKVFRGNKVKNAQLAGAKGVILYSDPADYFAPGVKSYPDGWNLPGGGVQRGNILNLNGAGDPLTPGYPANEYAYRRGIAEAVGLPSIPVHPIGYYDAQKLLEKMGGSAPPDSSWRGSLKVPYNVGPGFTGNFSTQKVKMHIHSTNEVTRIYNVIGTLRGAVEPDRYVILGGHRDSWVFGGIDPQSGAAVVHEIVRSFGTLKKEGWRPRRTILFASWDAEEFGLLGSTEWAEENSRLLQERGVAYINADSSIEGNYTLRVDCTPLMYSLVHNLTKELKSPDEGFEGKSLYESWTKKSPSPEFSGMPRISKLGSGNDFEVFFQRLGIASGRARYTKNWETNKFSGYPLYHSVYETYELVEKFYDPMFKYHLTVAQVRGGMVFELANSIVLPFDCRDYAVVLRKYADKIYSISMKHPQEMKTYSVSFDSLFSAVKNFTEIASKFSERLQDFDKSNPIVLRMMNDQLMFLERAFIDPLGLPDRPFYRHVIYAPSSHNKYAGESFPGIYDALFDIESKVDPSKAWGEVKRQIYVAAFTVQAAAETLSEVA
T1 sequence (P30550 whole entry): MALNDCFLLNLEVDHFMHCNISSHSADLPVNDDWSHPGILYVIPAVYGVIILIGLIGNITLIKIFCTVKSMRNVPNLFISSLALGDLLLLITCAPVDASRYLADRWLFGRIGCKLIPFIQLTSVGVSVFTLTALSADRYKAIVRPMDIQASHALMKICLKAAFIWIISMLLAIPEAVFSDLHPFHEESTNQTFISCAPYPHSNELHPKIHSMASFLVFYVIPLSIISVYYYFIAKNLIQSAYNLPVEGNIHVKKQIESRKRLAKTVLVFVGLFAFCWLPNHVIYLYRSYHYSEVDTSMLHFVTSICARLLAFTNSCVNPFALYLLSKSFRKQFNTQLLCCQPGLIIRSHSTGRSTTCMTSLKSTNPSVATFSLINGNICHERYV

B1: [DUPA-6-Ahx-Lys(DOTA)-6-Ahx-RM2] (peptide)
peptide: {DUPA-Ahx}-K(DOTA)[Ahx][dF]QWAVGH[Sta]L-NH2
SMILES: CC(C)C[C@H](NC(=O)C[C@H](O)[C@H](CC(C)C)NC(=O)[C@H](Cc1c[nH]cn1)NC(=O)CNC(=O)[C@@H](NC(=O)[C@H](C)NC(=O)[C@H](Cc1c[nH]c2ccccc12)NC(=O)[C@H](CCC(N)=O)NC(=O)[C@@H](Cc1ccccc1)NC(=O)CCCCCNC(=O)[C@H](CCCCNC(=O)CN1CCN(CC(=O)O)CCN(CC(=O)O)CCN(CC(=O)O)CC1)NC(=O)CCCCCNC(=O)CC[C@H](NC(=O)N[C@@H](CCC(=O)O)C(=O)O)C(=O)O)C(C)C)C(N)=O
notes: Unmetallated bivalent conjugate; also called [DUPA-6-Ahx-[DOTA]-6-Ahx-RM2]; [DUPA-6-Ahx-Lys[DOTA]-X-RM2], X=6-Ahx
In general, IC50 refers to the concentration that inhibits the measured activity by half. Read a high IC50 as weaker potency in that assay. As to B1, the values for the IC50 in assay [1] and in assay [2] were 3.85 nM and 3.99 nM, respectively.

B2: [DUPA-6-Ahx-[DOTA]-AMBA-RM2] (peptide)
peptide: {DUPA-Ahx}-K(DOTA)[4Abz][dF]QWAVGH[Sta]L-NH2
notes: Unmetallated bivalent conjugate; also called [DUPA-6-Ahx-Lys[DOTA]-X-RM2], X=AMBA
With B2, the IC50 in assay [1] was 5.27 nM.

For {DUPA-Ahx}-K(DOTA)[4Abz][dF]QWAVGH[Sta]L-NH2 (also: DOTA complexed with natural indium) [[DUPA-6-Ahx-[^natIn-DOTA-AMBA-RM2]], the “IC50 LNCaP cells (NAALADase assay, [N-acetyl aspartyl 3H-glutamate] substrate, LNCaP homogenized cell membranes)” value (“IC50 LNCaP cells” for short) in assay [3] is 14.9 nM.

B3: [DUPA-6-Ahx-[DOTA]-5-Ava-RM2] (peptide)
peptide: {DUPA-Ahx}-K(DOTA)[Ava][dF]QWAVGH[Sta]L-NH2
notes: Unmetallated bivalent conjugate; also called [DUPA-6-Ahx-Lys[DOTA]-X-RM2], X=5-Ava; [DUPA-6-Ahx-Lys(DOTA)-X-RM2] formula (I), X=5-aminovaleric acid
As for B3, the “IC50 LNCaP cells” value in assay [3] was 11.2 nM. This molecule had a half-inhibitory concentration (IC50) in assay [1] of 5.14 nM.

Take {DUPA-Ahx}-K(DOTA)[Ava][dF]QWAVGH[Sta]L-NH2 (also: DOTA complexed with natural indium) [[DUPA-6-Ahx-[^natIn-DOTA]-5-Ava- RM2]]: the “IC50 LNCaP cells” value in assay [3] stood at 14.4 nM.

The values above are taken from patent publication US20200188539A1 (CURATORS OF THE UNIVERSITY OF MISSOURI, published 2020).
